# Data: PMC13326754
# Experiments:
# [1] = target: GST-U2AF1α (Fritillaria borealis U2AF small subunit, paralog α) (Fritillaria borealis); experiment: pull-down; GST-U2AF1 baits co-expressed with U2AF2-V5 in HEK293T cells; glutathione beads; washes under increasing salt concentration; western blot for V5 and GST
# [2] = tested on: U2AF1beta (Fritillaria borealis); experiment: EMSA; settings: 330 nM; single U2AF1; never exceeded 5% bound; EMSA: 20 mM Hepes, 0.1 M NaCl, 5% glycerol, 0.5% Tween-20, pH 7.8, 50 ng/ul BSA, 0.5 mM TCEP, 0.5 mM EDTA; 1 h on ice; 6% PAGE 0.5x TBE at 4 C
# [3] = tested on: U2AF1alpha (Fritillaria borealis); experiment: EMSA; settings: 330 nM; single U2AF1; never exceeded 5% bound; EMSA: 20 mM Hepes, 0.1 M NaCl, 5% glycerol, 0.5% Tween-20, pH 7.8, 50 ng/ul BSA, 0.5 mM TCEP, 0.5 mM EDTA; 1 h on ice; 6% PAGE 0.5x TBE at 4 C
substance,measurement,setting,value
"U2AF2α-V5 (Fritillaria borealis U2AF large subunit, paralog α, V5/6xHis tagged) (natural protein)",excess protein bound on glutathione beads relative to U2AF2β,[1],10 to 35%
GGGUCGCUUCUCCCCCCCCCUAGGCGUCU [ORN.PyC],binding signal,[2],< 5 % bound
same,binding signal,[3],< 5 % bound
GGGCUGUCCUCUUUUUUUUUUCAGGCGUCU [ORN.PyU],binding signal,[2],< 5 % bound
same,binding signal,[3],< 5 % bound
